Blank lines part the entries; values can stand above or below the binder they belong to. *1 amine or outer side, *2 acyl side, *3 side chain or, on linkers, in order; H or OH if unused. Side-chain parts run from the residue outwards. The star is where a group is joined. C18 diacid = O=C(O)CCCCCCCCCCCCCCCCC(=O)*; γGlu = O=C(O)[C@H](CCC(=O)[*:2])N[*:1]; Isovaleryl = CC(C)CC(=O)*; AEEA = NCCOCCOCC(=O)O
Target: T1, human neuropeptide Y2 receptor (human, UniProt P49146 1-381)
T1 construct: whole, on cells; also called hNPY2 receptor; hNPY2-R
T1 sequence (looked up): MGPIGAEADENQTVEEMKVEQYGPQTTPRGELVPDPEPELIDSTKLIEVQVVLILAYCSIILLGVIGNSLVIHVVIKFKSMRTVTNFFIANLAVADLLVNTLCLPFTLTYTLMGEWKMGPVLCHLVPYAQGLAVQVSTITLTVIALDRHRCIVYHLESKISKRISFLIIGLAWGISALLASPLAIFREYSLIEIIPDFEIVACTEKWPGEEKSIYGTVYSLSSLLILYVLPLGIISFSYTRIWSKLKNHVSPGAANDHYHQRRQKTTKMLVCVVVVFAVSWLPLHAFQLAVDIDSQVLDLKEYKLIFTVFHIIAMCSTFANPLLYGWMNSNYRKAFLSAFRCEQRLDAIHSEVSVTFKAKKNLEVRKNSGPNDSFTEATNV
Test: radioligand competition (125I-PYY(1-36)), hNPY2R membranes
In short: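 Commercial human Y2 receptor membranes (0.5 μg protein/well) were incubated with peptide for 2 h at room temperature in 50 mM HEPES, 5 mM MgCl₂, 1 mM CaCl₂, pH 7.4, with 0.2% ovalbumin. Bound radioligand was separated on PEI-soaked GF/C filters and counted by scintillation, and IC₅₀ came from nonlinear sigmoidal regression.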

B1: Compound 146 (peptide)
peptide: Isovaleryl-APEK([AEEA-AEEA-γGlu-C18 diacid])PEEEASPEELQRYYVSTRHYYNWLTRQRY-NH2
SMILES: CC(C)CC(=O)N[C@@H](C)C(=O)N1CCC[C@H]1C(=O)N[C@@H](CCC(=O)O)C(=O)N[C@@H](CCCCNC(=O)COCCOCCNC(=O)COCCOCCNC(=O)CC[C@H](NC(=O)CCCCCCCCCCCCCCCCC(=O)O)C(=O)O)C(=O)N1CCC[C@H]1C(=O)N[C@@H](CCC(=O)O)C(=O)N[C@@H](CCC(=O)O)C(=O)N[C@@H](CCC(=O)O)C(=O)N[C@@H](C)C(=O)N[C@@H](CO)C(=O)N1CCC[C@H]1C(=O)N[C@@H](CCC(=O)O)C(=O)N[C@@H](CCC(=O)O)C(=O)N[C@@H](CC(C)C)C(=O)N[C@@H](CCC(N)=O)C(=O)N[C@@H](CCCNC(=N)N)C(=O)N[C@@H](Cc1ccc(O)cc1)C(=O)N[C@@H](Cc1ccc(O)cc1)C(=O)N[C@H](C(=O)N[C@@H](CO)C(=O)N[C@H](C(=O)N[C@@H](CCCNC(=N)N)C(=O)N[C@@H](Cc1c[nH]cn1)C(=O)N[C@@H](Cc1ccc(O)cc1)C(=O)N[C@@H](Cc1ccc(O)cc1)C(=O)N[C@@H](CC(N)=O)C(=O)N[C@@H](Cc1c[nH]c2ccccc12)C(=O)N[C@@H](CC(C)C)C(=O)N[C@H](C(=O)N[C@@H](CCCNC(=N)N)C(=O)N[C@@H](CCC(N)=O)C(=O)N[C@@H](CCCNC(=N)N)C(=O)N[C@@H](Cc1ccc(O)cc1)C(N)=O)[C@@H](C)O)[C@@H](C)O)C(C)C
- Ki: 5.05 nM

B4: Compound 147 (peptide)
peptide: Isovaleryl-APEK([AEEA-AEEA-γGlu-C18 diacid])PEEDASPEETQKYYVSLRHYYNWLTRQRY-NH2
SMILES: CC(C)CC(=O)N[C@@H](C)C(=O)N1CCC[C@H]1C(=O)N[C@@H](CCC(=O)O)C(=O)N[C@@H](CCCCNC(=O)COCCOCCNC(=O)COCCOCCNC(=O)CC[C@H](NC(=O)CCCCCCCCCCCCCCCCC(=O)O)C(=O)O)C(=O)N1CCC[C@H]1C(=O)N[C@@H](CCC(=O)O)C(=O)N[C@@H](CCC(=O)O)C(=O)N[C@@H](CC(=O)O)C(=O)N[C@@H](C)C(=O)N[C@@H](CO)C(=O)N1CCC[C@H]1C(=O)N[C@@H](CCC(=O)O)C(=O)N[C@@H](CCC(=O)O)C(=O)N[C@H](C(=O)N[C@@H](CCC(N)=O)C(=O)N[C@@H](CCCCN)C(=O)N[C@@H](Cc1ccc(O)cc1)C(=O)N[C@@H](Cc1ccc(O)cc1)C(=O)N[C@H](C(=O)N[C@@H](CO)C(=O)N[C@@H](CC(C)C)C(=O)N[C@@H](CCCNC(=N)N)C(=O)N[C@@H](Cc1c[nH]cn1)C(=O)N[C@@H](Cc1ccc(O)cc1)C(=O)N[C@@H](Cc1ccc(O)cc1)C(=O)N[C@@H](CC(N)=O)C(=O)N[C@@H](Cc1c[nH]c2ccccc12)C(=O)N[C@@H](CC(C)C)C(=O)N[C@H](C(=O)N[C@@H](CCCNC(=N)N)C(=O)N[C@@H](CCC(N)=O)C(=O)N[C@@H](CCCNC(=N)N)C(=O)N[C@@H](Cc1ccc(O)cc1)C(N)=O)[C@@H](C)O)C(C)C)[C@@H](C)O
- Ki: 1.19 nM

Second part, the binder after the results:

- Ki: 1.43 nM
B2: Compound 151 (peptide)
peptide: Isovaleryl-APEK([AEEA-AEEA-γGlu-C18 diacid])PEAEASPEELQRYYVSLRHYYNWLTRQRY-NH2
SMILES: CC(C)CC(=O)N[C@@H](C)C(=O)N1CCC[C@H]1C(=O)N[C@@H](CCC(=O)O)C(=O)N[C@@H](CCCCNC(=O)COCCOCCNC(=O)COCCOCCNC(=O)CC[C@H](NC(=O)CCCCCCCCCCCCCCCCC(=O)O)C(=O)O)C(=O)N1CCC[C@H]1C(=O)N[C@@H](CCC(=O)O)C(=O)N[C@@H](C)C(=O)N[C@@H](CCC(=O)O)C(=O)N[C@@H](C)C(=O)N[C@@H](CO)C(=O)N1CCC[C@H]1C(=O)N[C@@H](CCC(=O)O)C(=O)N[C@@H](CCC(=O)O)C(=O)N[C@@H](CC(C)C)C(=O)N[C@@H](CCC(N)=O)C(=O)N[C@@H](CCCNC(=N)N)C(=O)N[C@@H](Cc1ccc(O)cc1)C(=O)N[C@@H](Cc1ccc(O)cc1)C(=O)N[C@H](C(=O)N[C@@H](CO)C(=O)N[C@@H](CC(C)C)C(=O)N[C@@H](CCCNC(=N)N)C(=O)N[C@@H](Cc1c[nH]cn1)C(=O)N[C@@H](Cc1ccc(O)cc1)C(=O)N[C@@H](Cc1ccc(O)cc1)C(=O)N[C@@H](CC(N)=O)C(=O)N[C@@H](Cc1c[nH]c2ccccc12)C(=O)N[C@@H](CC(C)C)C(=O)N[C@H](C(=O)N[C@@H](CCCNC(=N)N)C(=O)N[C@@H](CCC(N)=O)C(=O)N[C@@H](CCCNC(=N)N)C(=O)N[C@@H](Cc1ccc(O)cc1)C(N)=O)[C@@H](C)O)C(C)C

- Ki: 5.18 nM
B3: Compound 152 (peptide)
peptide: Isovaleryl-APEK([AEEA-AEEA-γGlu-C18 diacid])AEEDASPEEIQRYYVSLRHYYNWLTRQRY-NH2
SMILES: CC[C@H](C)[C@H](NC(=O)[C@H](CCC(=O)O)NC(=O)[C@H](CCC(=O)O)NC(=O)[C@@H]1CCCN1C(=O)[C@H](CO)NC(=O)[C@H](C)NC(=O)[C@H](CC(=O)O)NC(=O)[C@H](CCC(=O)O)NC(=O)[C@H](CCC(=O)O)NC(=O)[C@H](C)NC(=O)[C@H](CCCCNC(=O)COCCOCCNC(=O)COCCOCCNC(=O)CC[C@H](NC(=O)CCCCCCCCCCCCCCCCC(=O)O)C(=O)O)NC(=O)[C@H](CCC(=O)O)NC(=O)[C@@H]1CCCN1C(=O)[C@H](C)NC(=O)CC(C)C)C(=O)N[C@@H](CCC(N)=O)C(=O)N[C@@H](CCCNC(=N)N)C(=O)N[C@@H](Cc1ccc(O)cc1)C(=O)N[C@@H](Cc1ccc(O)cc1)C(=O)N[C@H](C(=O)N[C@@H](CO)C(=O)N[C@@H](CC(C)C)C(=O)N[C@@H](CCCNC(=N)N)C(=O)N[C@@H](Cc1c[nH]cn1)C(=O)N[C@@H](Cc1ccc(O)cc1)C(=O)N[C@@H](Cc1ccc(O)cc1)C(=O)N[C@@H](CC(N)=O)C(=O)N[C@@H](Cc1c[nH]c2ccccc12)C(=O)N[C@@H](CC(C)C)C(=O)N[C@H](C(=O)N[C@@H](CCCNC(=N)N)C(=O)N[C@@H](CCC(N)=O)C(=O)N[C@@H](CCCNC(=N)N)C(=O)N[C@@H](Cc1ccc(O)cc1)C(N)=O)[C@@H](C)O)C(C)C

- Ki: 2.02 nM
B5: Compound 150 (peptide)
peptide: Isovaleryl-APEK([AEEA-AEEA-γGlu-C18 diacid])PEEDAEPEELQKYYVSLRHYYNWLTRQRY-NH2
SMILES: CC(C)CC(=O)N[C@@H](C)C(=O)N1CCC[C@H]1C(=O)N[C@@H](CCC(=O)O)C(=O)N[C@@H](CCCCNC(=O)COCCOCCNC(=O)COCCOCCNC(=O)CC[C@H](NC(=O)CCCCCCCCCCCCCCCCC(=O)O)C(=O)O)C(=O)N1CCC[C@H]1C(=O)N[C@@H](CCC(=O)O)C(=O)N[C@@H](CCC(=O)O)C(=O)N[C@@H](CC(=O)O)C(=O)N[C@@H](C)C(=O)N[C@@H](CCC(=O)O)C(=O)N1CCC[C@H]1C(=O)N[C@@H](CCC(=O)O)C(=O)N[C@@H](CCC(=O)O)C(=O)N[C@@H](CC(C)C)C(=O)N[C@@H](CCC(N)=O)C(=O)N[C@@H](CCCCN)C(=O)N[C@@H](Cc1ccc(O)cc1)C(=O)N[C@@H](Cc1ccc(O)cc1)C(=O)N[C@H](C(=O)N[C@@H](CO)C(=O)N[C@@H](CC(C)C)C(=O)N[C@@H](CCCNC(=N)N)C(=O)N[C@@H](Cc1c[nH]cn1)C(=O)N[C@@H](Cc1ccc(O)cc1)C(=O)N[C@@H](Cc1ccc(O)cc1)C(=O)N[C@@H](CC(N)=O)C(=O)N[C@@H](Cc1c[nH]c2ccccc12)C(=O)N[C@@H](CC(C)C)C(=O)N[C@H](C(=O)N[C@@H](CCCNC(=N)N)C(=O)N[C@@H](CCC(N)=O)C(=O)N[C@@H](CCCNC(=N)N)C(=O)N[C@@H](Cc1ccc(O)cc1)C(N)=O)[C@@H](C)O)C(C)C

- Ki: 2.75 nM
B6: Compound 149 (peptide)
peptide: Isovaleryl-APEK([AEEA-AEEA-γGlu-C18 diacid])PEEAASPEELQRYYVELRHYYNWLTRQRY-NH2
SMILES: CC(C)CC(=O)N[C@@H](C)C(=O)N1CCC[C@H]1C(=O)N[C@@H](CCC(=O)O)C(=O)N[C@@H](CCCCNC(=O)COCCOCCNC(=O)COCCOCCNC(=O)CC[C@H](NC(=O)CCCCCCCCCCCCCCCCC(=O)O)C(=O)O)C(=O)N1CCC[C@H]1C(=O)N[C@@H](CCC(=O)O)C(=O)N[C@@H](CCC(=O)O)C(=O)N[C@@H](C)C(=O)N[C@@H](C)C(=O)N[C@@H](CO)C(=O)N1CCC[C@H]1C(=O)N[C@@H](CCC(=O)O)C(=O)N[C@@H](CCC(=O)O)C(=O)N[C@@H](CC(C)C)C(=O)N[C@@H](CCC(N)=O)C(=O)N[C@@H](CCCNC(=N)N)C(=O)N[C@@H](Cc1ccc(O)cc1)C(=O)N[C@@H](Cc1ccc(O)cc1)C(=O)N[C@H](C(=O)N[C@@H](CCC(=O)O)C(=O)N[C@@H](CC(C)C)C(=O)N[C@@H](CCCNC(=N)N)C(=O)N[C@@H](Cc1c[nH]cn1)C(=O)N[C@@H](Cc1ccc(O)cc1)C(=O)N[C@@H](Cc1ccc(O)cc1)C(=O)N[C@@H](CC(N)=O)C(=O)N[C@@H](Cc1c[nH]c2ccccc12)C(=O)N[C@@H](CC(C)C)C(=O)N[C@H](C(=O)N[C@@H](CCCNC(=N)N)C(=O)N[C@@H](CCC(N)=O)C(=O)N[C@@H](CCCNC(=N)N)C(=O)N[C@@H](Cc1ccc(O)cc1)C(N)=O)[C@@H](C)O)C(C)C
